The source of these data is US20130059772A1, “Use of Repeat Sequence Protein Polymers in Personal Care Compositions” (DANISCO US INC., priority 2003, published 2013).

Series [1] has as its system cultured dermal fibroblasts. Description: UVB protection, follow-up MTT assay (pretreatment protocols). The class given is cell-based, human. Conditions: UVB control 79 ± 19. As for the experimental part: (§1) Two sets of duplicate cells were prepared using the four treatment protocols outlined in Table 24. One set of cells was used for an MTT assay while the other set of cells was used to measure the formation of ROS using the fluorescent DCF dye indicator.
(§2) For this follow up study, the material was tested at concentrations of 0.14% and 0.014%. During the pretreatment phase, the test material was diluted in FGM (for treatments 1 and 2). […] For the MTT assay, cells that were not exposed to UVB or treated with test materials were used to represent 100% cell viability.
Background: Tetrazolium assays rely on reduction of a dye to a coloured formazan, in cell work by metabolically active cells.

Series [2] relates to reactive oxygen species (ROS). Description: Fluorescent DCF dye assay after UVB. It counts as cell-based, human. As to conditions: No UVB 0.031, UVB 0.057. As for the experimental part: Therefore, the aim of the follow-up study, was to determine if treatment with the test material before or during UVB exposure provided any additional survival benefit(s). Four different treatment regiments were employed using different combinations of pretreatment with the test material prior to UVB exposure and treatment with the material during UVB exposure. Cell survival was again assessed via an MTT assay 48 hours after the UVB insult. In addition, this second study also incorporated the use of 2′,7′-dichloro-dihydrofluorescein diacetate (DCF), which is a relatively non-fluorescent dye that can be loaded into cells and becomes fluorescent upon exposure to the reactive oxygen species (ROS) generated during UVB exposure (Carini et al., Il Farmaco 55:526-534 [2000]; and Chan et al., J. Cell. Biochem., 90:327-338 [2003]). The diacetate form of the dye can freely traverse cell membranes, however once inside of the cell intracellular esterases will cleave off the acetate side groups trapping the DCF dye within the cell.
as §1, §2
One hour prior to UVB exposure, the cell culture media were removed and the wells were washed with PBS to remove any residual RSPP test material in the set of cells used for the DCF assay. A 20 mM stock of DCF prepared in DMSO was diluted to 10 μM using PBS and 100 μl of this solution were added to each well. The plate was then returned to the incubator for 1 hour, to allow sufficient time for the cells to take up and trap the dye. After the 1-hour incubation, the cells were washed with PBS to remove any unincorporated dye and then exposed to UVB using the protocol described above. Forty-eight hours later, the 96-well plate was read using a fluorometer set for an excitation wavelength of 485 nm and an emission wavelength of 518 nm. The duplicate set of wells run for the MTT assay served as non-dye loaded blanks to account for any background fluorescence due to the cells or the test material.
The mean fluorescence intensity was determined for each of the treatment groups (measured in relative fluorescence units or “RFU”).

Where [3] appears, read: T1 (24 hour pretreatment, absent during UVB, present 48 hours after) 0.014%.
[4] abbreviates: T1 (24 hour pretreatment, absent during UVB, present 48 hours after) 0.14%.
Where [5] appears, read: T2 (24 hour pretreatment, present during UVB and 48 hours after) 0.014%.
Setting [6] is: T2 (24 hour pretreatment, present during UVB and 48 hours after) 0.14%.
Where [7] appears, read: T3 (present only 48 hours after UVB) 0.014%.
Setting [8] is: T3 (present only 48 hours after UVB) 0.14%.
Setting [9] is: T4 (no pretreatment, present during UVB and 48 hours after) 0.014%.
[10] abbreviates: T4 (no pretreatment, present during UVB and 48 hours after) 0.14%.

B1: GC2596-26-D: SELP47K modified with two units of ALSYP (SEQ ID NO:36) peptides in each SELP47K unit; SEQ ID NO:32 (Example 4) (protein)
chain: MDPVVLQRRDWENPGVTQLNRLAAHPPFASDPMGAGAGSGAGAGSALSYPGVGVPGVGVPGVGVPGVGVPGKGVPGVGVPGVGVPGVGVPALSYPGAGAGSGAGAGSGAGAGSGAGAGSALSYPGVGVPGVGVPGVGVPGVGVPGKGVPGVGVPGVGVPGVGVPALSYPGAGAGSGAGAGSGAGAGSGAGAGSALSYPGVGVPGVGVPGVGVPGVGVPGKGVPGVGVPGVGVPGVGVPALSYPGAGAGSGAGAGSGAGAGSGAGAGSALSYPGVGVPGVGVPGVGVPGVGVPGKGVPGVGVPGVGVPGVGVPALSYPGAGAGSGAGAGSGAGAGSGAGAGSALSYPGVGVPGVGVPGVGVPGVGVPGKGVPGVGVPGVGVPGVGVPALSYPGAGAGSGAGAGSGAGAGSGAGAGSALSYPGVGVPGVGVPGVGVPGVGVPGKGVPGVGVPGVGVPGVGVPALSYPGAGAGSGAGAGSGAGAGSGAGAGSALSYPGVGVPGVGVPGVGVPGVGVPGKGVPGVGVPGVGVPGVGVPALSYPGAGAGSGAGAGSGAGAGSGAGAGSALSYPGVGVPGVGVPGVGVPGVGVPGKGVPGVGVPGVGVPGVGVPALSYPGAGAGSGAGAGSGAGAGSGAGAGSALSYPGVGVPGVGVPGVGVPGVGVPGKGVPGVGVPGVGVPGVGVPALSYPGAGAGSGAGAGSGAGAGSGAGAGSALSYPGVGVPGVGVPGVGVPGVGVPGKGVPGVGVPGVGVPGVGVPALSYPGAGAGSGAGAGSGAGAGSGAGAGSALSYPGVGVPGVGVPGVGVPGVGVPGKGVPGVGVPGVGVPGVGVPALSYPGAGAGSGAGAGSGAGAGSGAGAGSALSYPGVGVPGVGVPGVGVPGVGVPGKGVPGVGVPGVGVPGVGVPALSYPGAGAGSGAGAGSGAGAGSGAGAGSALSYPGVGVPGVGVPGVGVPGVGVPGKGVPGVGVPGVGVPGVGVPALSYPGAGAGSGAGAGSGAGAMDPGRYQDLRSHHHHHH
modifications: SELP 47K-P4
Take B1: the “Percent Viability” value worked out at 85 ± 7% in series [1] (setting [3]); 122 ± 20% in series [1] (setting [4]); 78 ± 4% in series [1] (setting [5]); 126 ± 25% in series [1] (setting [6]); 88% in series [1] (setting [7]); 97 ± 14% in series [1] (setting [8]). The “Percent Viability” value in series [1] (T3 (present only 48 hours after UVB) 0.14%, listed as 2596-26-D) is given as about 100%; in series [1] (setting [9]), 86 ± 6%; in series [1] (setting [10]), 121 ± 19%. Further, the RFU/Viability in series [2] (setting [3]) turned out to be 0.038; in series [2] (setting [4]), 0.038; in series [2] (setting [5]), 0.035; in series [2] (setting [6]), 0.032; in series [2] (setting [7]), 0.053; in series [2] (setting [8]), 0.039. The RFU/Viability is listed as 0.052 in series [2] (setting [9]) and 0.026 in series [2] (setting [10]).
